According to patent US20200087392A1 (Novartis, published 2020):

Biological target: T1, human β-klotho (human, UniProt Q86Z14 52-997, limits assumed)
T1 construct: Antigen of the SET assay; also called beta-klotho
T1 sequence: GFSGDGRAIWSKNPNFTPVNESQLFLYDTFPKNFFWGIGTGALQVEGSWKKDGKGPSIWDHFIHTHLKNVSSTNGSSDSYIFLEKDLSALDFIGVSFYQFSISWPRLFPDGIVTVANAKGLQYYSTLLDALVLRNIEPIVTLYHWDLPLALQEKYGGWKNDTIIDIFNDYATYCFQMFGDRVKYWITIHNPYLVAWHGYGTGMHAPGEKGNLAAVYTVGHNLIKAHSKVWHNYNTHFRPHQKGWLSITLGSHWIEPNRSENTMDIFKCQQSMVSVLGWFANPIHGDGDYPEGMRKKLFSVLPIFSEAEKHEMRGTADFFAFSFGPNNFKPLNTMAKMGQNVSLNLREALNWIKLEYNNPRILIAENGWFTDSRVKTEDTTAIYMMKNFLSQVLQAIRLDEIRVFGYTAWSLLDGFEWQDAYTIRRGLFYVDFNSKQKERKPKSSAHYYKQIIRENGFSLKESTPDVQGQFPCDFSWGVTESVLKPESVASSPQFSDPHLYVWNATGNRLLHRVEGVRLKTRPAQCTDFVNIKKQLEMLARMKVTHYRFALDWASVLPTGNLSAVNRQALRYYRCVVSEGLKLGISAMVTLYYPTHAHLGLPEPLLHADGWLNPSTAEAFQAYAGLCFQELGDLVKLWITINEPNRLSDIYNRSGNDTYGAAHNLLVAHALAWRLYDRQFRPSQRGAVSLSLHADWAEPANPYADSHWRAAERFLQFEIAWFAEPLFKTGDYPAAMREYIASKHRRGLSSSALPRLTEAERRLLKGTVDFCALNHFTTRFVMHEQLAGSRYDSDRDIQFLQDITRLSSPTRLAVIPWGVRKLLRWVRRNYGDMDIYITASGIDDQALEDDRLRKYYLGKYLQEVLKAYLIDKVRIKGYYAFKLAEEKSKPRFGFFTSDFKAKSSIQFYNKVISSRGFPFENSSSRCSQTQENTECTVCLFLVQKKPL
Assay: solution equilibrium titration (SET)

Kd: ~0.042 nM
B1: NOV001 (antibody, human IgG1, kappa, L234A L235A, V domains shown)
VH: QVQLVQSGAEVKKPGSSVKVSCKASGYTFTDYYINWVRQAPGQGLEWMGRIHPGSGNTYYNEKFQGRVTLTADKSTSTAYMELSSLRSEDTAVYYCAILLLRSYGMDDWGQGTTVTVSS
VL: DVVMTQTPLSLSVTPGQPASISCKSSQSIVHSSGNTYLEWYLQKPGQSPQLLIYKVSNRFSGVPDRFSGSGSGTDFTLKISRVEAEDVGVYYCFQGSHIPYTFGQGTKLEIKR
notes: also called IgG1 LALA version of NOV003
